Experimental data taken from patent publication US20100081611A1.

Molecular target: pre-assembled ICN-CSL complex (UniProt P46531)
Test: surface plasmon resonance, peptide immobilized, pre-assembled ICN-CSL complex

Sequence of pre-assembled ICN-CSL complex (P46531 1760-2126, chain 1 of 2): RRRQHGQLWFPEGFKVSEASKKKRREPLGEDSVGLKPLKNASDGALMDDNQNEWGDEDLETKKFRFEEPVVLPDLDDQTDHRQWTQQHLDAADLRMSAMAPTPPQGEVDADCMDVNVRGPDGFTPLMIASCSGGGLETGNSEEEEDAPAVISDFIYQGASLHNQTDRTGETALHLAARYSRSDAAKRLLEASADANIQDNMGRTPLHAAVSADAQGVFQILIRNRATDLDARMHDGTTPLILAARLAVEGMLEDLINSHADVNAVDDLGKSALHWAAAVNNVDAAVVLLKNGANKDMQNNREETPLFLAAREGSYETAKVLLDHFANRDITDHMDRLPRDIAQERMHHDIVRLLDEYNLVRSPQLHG
Sequence of pre-assembled ICN-CSL complex (Q06330 23-449, chain 2 of 2, further chain): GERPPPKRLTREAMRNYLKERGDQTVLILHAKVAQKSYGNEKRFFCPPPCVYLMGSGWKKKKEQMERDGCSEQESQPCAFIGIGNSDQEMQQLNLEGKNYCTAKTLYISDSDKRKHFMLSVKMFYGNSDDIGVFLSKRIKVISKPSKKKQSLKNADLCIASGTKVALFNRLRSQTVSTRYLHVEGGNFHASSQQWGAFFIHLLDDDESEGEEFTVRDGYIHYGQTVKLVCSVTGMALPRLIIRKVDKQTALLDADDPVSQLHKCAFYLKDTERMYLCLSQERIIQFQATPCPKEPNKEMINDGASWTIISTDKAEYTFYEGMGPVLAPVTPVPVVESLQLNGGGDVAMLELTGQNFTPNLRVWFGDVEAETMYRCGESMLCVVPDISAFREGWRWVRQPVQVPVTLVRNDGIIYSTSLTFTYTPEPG

Kd: 98 nM
Substance: SAHN1 (REM-G1), internally cross-linked (stapled) MAML-1 polypeptide
